The record followed here is the DeepSol protein solubility set.

The series is described as follows: soluble on expression in E. coli; label from the status in PepcDB or PDB records.
For the sequence “MSLKVVITRPKERADVFASLLKKEGFEPIIFPTLEIVYNKDLDVNLDSYDWIAFTSPSGVIGLYNILTENERENVKNKKIAVIGEKTAKTFKKYFGRDPDIMPNEYTAESLLREIKKVSKEEEKFLIPTTPSTRDVLKNNLNADLLFVYKSAEPENLKEDIKKLKELIAKDKFILTFTSGLTAKNFFKYVDDEFAEIIKDNYIVAIGPITAKVIEKFGFKPLIPKVYTIEGMLEVIRTLKEREGHHHHHH”, the “soluble on expression in E. coli” value is listed as “soluble”. Take “MGQVEVIDRRQSVFGDDIQLQKRSSSYEIISNGVFLMSTENGRSEREMVTLGAQHMKNAVHSVLIGGLGVGITADEAVHLNDHVQVHVVEIEPSVVEWQYRYLYPFSNQALEHERTAIIISDIQQWLRTNERTYDLICLDTDNGPDWMVHKQNASLYGKIGLELVRERVRVGGAVSFWSASASESFLHELETLFDRVYEHAVSISHTLPPDYVYVACRDLEHHHHHH”: the “soluble on expression in E. coli” value is recorded as “soluble”. As to “MKKEPLFVALSNQKGGVGKSTLTVLLASYFHYHKAKNVLVVDCDYPQHSMMTLREWDIKNVEKTPRLQSLLVEQFGDTGRKAYNILASMPEQAKETAYGFIDRSDTEYDLVLLDLPGTVNTTGVFQSIINMDYVFTPITQERMVMQSSMSFVLSIREYLLHHKGVPLRDIHMFWNKMDKRVSRDLYDAYMEIIRSLGLPVLNTVLPAAERYKKDVGLNGQIFRSTLFPPSAAALKGSNFDLLAAEMETILGL”, the “soluble on expression in E. coli” value is listed as “not soluble”. In the case of “MGSDKIHHHHHHVEYPLPAKNSNLVGENQYYVVPEGKLTLEAIATKFQLGLTNLLEANPGVDPFLPKPGSTLVIPHQLILPNAPREGIVINVAEMRLYYYPKGKNIVEVLPIGIGQIGKDTPEKWVTTVQRKRANPTWTPTPRIRKEYLAKGEVLPAVWPAGPDNPMGLFALYIGNLYAIHGTNATFGIGLRISQGCIRLRDADIEHLFNSVPEGTRVEFTNQPIKASEEPDGNRYLEVHQPLSRTMAEYESAEPVGLSMHRDIAKFVAHADTDSFVLKRLLEQRNGIPTRINQ”, the “soluble on expression in E. coli” value is “not soluble”. Consider “GAGAYAYKTIKEDQKRYNERVMGLGLSPEEKQRRAIASATEGGSVPQIRAPSHVPFLLIGGGTAAFAAARSIRARDPGARVLIVSEDPELPYMRPPLSKELWFSDDPNVTKTLQFRQWNGKERSIYFQPPSFYVSAQDLPNIENGGVAVLTGKKVVHLDVRGNMVKLNDGSQITFEKCLIATGGTPRSLSAIDRAGAEVKSRTTLFRKIGDFRALEKISREVKSITVIGGGFLGSELACALGRKSQASGIEVIQLFPEKGNMGKILPQYLSNWTMEKVKREGVKVMPNAIVQSVGVSGGRLLIKLKDGRKVETDHIVTAVGLEPNVELAKTGGLEIDSDFGGFRVNAELQARSNIWVAGDAACFYDIKLGRRRVEHHDHAVVSGRLAGENMTGAAKPYWHQSMFWSDLGPDVGYEAIGLVDSSLPTVGVFAKATAQDNPKSATEQSGTGIRSESETESEASEITIPPSAPAVPQVPVEGEDYGKGVIFYLRDKVVVGIVLWNVFNRMPIARKIIKDGEQHEDLNEVAKLFNIHED”, for which the “soluble on expression in E. coli” value is recorded as “soluble”.

As for “MQSLNVNGTLMTYSESGDPHAPTLFLLSGWCQDHRLFKNLAPLLARDFHVICPDWRGHDAKQTDSGDFDSQTLAQDLLAFIDAKGIRDFQMVSTSHGCWVNIDVCEQLGAARLPKTIIIDWLLQPHPGFWQQLAEGQHPTEYVAGRQSFFDEWAETTDNADVLNHLRNEMPWFHGEMWQRACREIEANYRTWGSPLDRMDSLPQKPEICHIYSQPLSQDYRQLQLEFAAGHSWFHPRHIPGRTHFPSLENPVAVAQAIREFLQA”, the “soluble on expression in E. coli” value is “soluble”. In the case of “MSGKEEFQTIKERAKRKLERDMGADLLAALNDPKTVEVMLNADGKVWHERLGEPMRYICDMRPSQSQAIIETVAGFHGKEVTRHSPILEGEFPLDGSRFAGQLPPVVAAPTFAIRKRAVAIFTLEQYVEAGIMTREQYEVIKSAVAAHRNILVIGGTGSGKTTLVNAIINEMVAFNPSERVVIIEDTGEIQCAAENAVQYHTSIDVSMTLLLKTTLRMRPDRILVGEVRGPEALDLLMAWNTGHEGGAATLHANNPKAGLSRLAMLISMHPDSPKPIEPLIGEAVHVVVHIARTPSGRRVQEILEVLGYENGQYITKTL”, the “soluble on expression in E. coli” value was “not soluble”.

For the sequence “MGSCMKWDYGEMEDFSVSASGLFITNEGNFQYSNATLSYYDPATCEVENEVFYRANGFKLGDVAQSMVIRDGIGWIVVNNSHVIFAIDINTFKEVGRITGFTSPRYIHFLSDEKAYVTQIWDYRIFIINPKTYEITGYIECPDMDMESGSTEQMVQYGKYVYVNCWSYQNRILKIDTETDKVVDELTIGIQPTSLVMDKYNKMWTITDGGYEGSPYGYEAPSLYRIDAETFTVEKQFKFKLGDWPSEVQLNGTRDTLYWINNDIWRMPVEADRVPVRPFLEFRDTKYYGLTVNPNNGEVYVADAIDYQQQGIVYRYSPQGKLIDEFYVGLEHHHHHH”, the “soluble on expression in E. coli” value is on record as “soluble”. On to “ELEKSEELYKSLLEDASDAIVVVDENEIVKMVNKMAEEFFGHSSEEVVGLPLSRMLVLVKTHNIPIVYNFFQEVGKGRHVAEEIRFSRVEGEQVVGLIHANTVTIGSERLIQAIIRDVT”, for which the “soluble on expression in E. coli” value was “not soluble”.

For “MSLKTSKTSTVVLIVPTTWSPFFAELVYRMQVELDRIGFKMILANSHADPDEEEEILRMASLNQVTGVITMSYSNIYNFINIGKKLNLVSIERFISEDVPLITSDNYGGGQLAAEKLITFGSKRFLLLRRKTNHYNATDKRTEGFLHIMKENNLPVDIFEASLKENYIEEFIHYLKTHFSGDVLTFDGIFGVTDEYAVIAKQVLFELNPSYLNKVNIIGFDGSKSQEKGSYQIASIRQPVEAMVKAAVKVLKKLIDGEEVPSHYSKVFDVSFVEPERLVEGHHHHHH”, the “soluble on expression in E. coli” value was “soluble”. As for “MAKVRETYVCSACGANTPQWRGQCPTCKAWNTLDAVTVARETRSGVRRQGAPDSVRPRPLRDVSDEGGSPFGTGLEALDRVLGSGLVPGAAILFGGEPGIGKSTLLLQVAGAVAASGRDVLYLSGEESLTQLKGRAERLGVLHERLLAVATSRVEDVFSVLESGTPPALLVLDSVQTLTSDLAEGLPGNVSQVRAVATEVVDRCKRAGTAVLLVGHVTKDGNLAGPRLLEHMVDTVVSLEGDRRQMFRLLRVLKNRFGPNQELLVFQMAQRGLEVVEDPSTFFLGARDPALSGTAVVMAVDGQRPFAVEVQALVTRSYLAIPRRTGLGFDVNRLHLLLAVLEKRLRLNFGQVDIYAKIGGGMRLQDPGMDLALVAAVLSSFYDVALPERAVLWGEVDLNGQVRPVAAHDIRLGQAARLGYGPVLHPGEGRGAVPTVVELQARLFGKSGAPRHNPSELEHHHHHH”, the entry is “not soluble”. “HATMEPLNCFVDLQSDSCLIRTGSQFQTGDRNAAARVAGLKPEQVTLETTFLGGGFGRRACPASDFVIEAVQVAKTVGKPVMVIRTREDDMRAG”: the “soluble on expression in E. coli” value is “not soluble”. In the case of “MAGDPMRMVAHRFLRPQEAHMQVLVRDNNVDQALRILKKKLQREGVFREMRLREAFEKPSIKKAREKAEAIGRQRKLARKQMQREGLLPTKPRKDKLEHHHHHH”, the “soluble on expression in E. coli” value is “not soluble”. For “MKMKDELINLIINEGCIKFGHFVLTSGKESNYYIDIKSLITNPKALRIIAKLIKEKAEELNLNYDKIAGPELGAVPIATALSLETNKPLLIVRKKKKEHGTGKVIEGNVQKGDKVLLVEDVTTTGGSVIRAAKILREHGADVVGIFVVVDREEGAKENIEKEGFKFYPLVLVSELFKAAGISKDQS”, the “soluble on expression in E. coli” value was “soluble”. The same measure for “MIIKPRIRGFICTTTHPVGCEANVKEQIAYTKAQGPIKNAPKRVLVVGASSGYGLSSRIAAAFGGGASTIGVFFEKEGTEKKPGTAGFYNAAAFEKLAREEGLYAKSLNGDAFSNEAKQKTIDLIKEDLGQVDMVVYSLASPVRKMPETGELIRSALKPIGETYTSTAVDTNKDVIIEASVEPATEEEIKDTVTVMGGEDWELWINALSDAGVLAEGCKTVAYSYIGTELTWPIYWDGALGKAKMDLDRAAKALNEKLGATGGSANVAVLKSVVTQASSAIPVMPLYIAMVFKKMREEGVHEGCMEQIYRMFSQRLYKEDGSAAEVDDMNRLRLDDWELREDIQQHCRELWPQITTENLKELTDYVEYKEEFLKLFGFGVEGVDYEADV”: “not soluble”.
